Common to all, as to format: biochemical, Arabidopsis thaliana
Substrate in series [1]: N[C@@H](Cc1ccc(OP(=O)(O)O)cc1)C(=O)O
Briefly: Malachite Green phosphate release, non-linear fit. Conditions: pH 5.0, no metal, 37 °C, substrate inhibition above 3.0 mM.

Substrate in series [2]: Nc1ncnc2c1ncn2[C@@H]1O[C@H](COP(=O)(O)OP(=O)(O)OP(=O)(O)O)[C@@H](O)[C@H]1O
Kind of series: Malachite Green phosphate release, non-linear fit. The conditions noted are these: pH 5.0, no metal, 37 °C.

Substrate in series [3]: O=[N+]([O-])c1ccc(OP(=O)(O)O)cc1
Briefly: phosphatase assay, non-linear fit. The conditions noted are these: pH 5.0, no metal, 37 °C.

The text below walks through data of paper PMC4437517.

What is called Km is the substrate concentration at which the rate is half of its maximum. For orientation: Vmax means the rate approached at saturating substrate. In general, kcat refers to the maximal rate divided by the concentration of active sites. One may read the kcat/Km as the second-order rate constant that governs catalysis at low substrate concentration.

B1: At1g05000 (Arabidopsis thaliana; M1S) (protein)
chain: SKLVEKTTTTEQDNGEDFCRTIIEVSEVNRNVFQAPGGEADPFRVVSGEELHLIPPLNFSMVDNGIFRSGFPDSANFSFLQTLGLRSIIYLCPEPYPESNLQFLKSNGIRLFQFGIEGNKEPFVNIPDHKIRMALKVLLDEKNHPVLIHCKRGKHRTGCLVGCLRKLQKWCLTSIFDEYQRFAAAKARVSDQRFMEIFDVSSFSHIPMSFSCSIR
Regarding B1, in series [1], the Km turned out to be 880 ± 100 µM, the maximum rate (Vmax) worked out at 0.19 µmol/min/mg, the kcat was 0.077 ± 0.004 s⁻¹ and the kcat/Km is 87.5 M⁻¹ s⁻¹. Moreover, in series [2], the Km was determined as 480 ± 50 µM, the maximal velocity (Vmax) was 1.52 µmol/min/mg, the kcat stood at 0.62 ± 0.02 s⁻¹ and the kcat/Km came out at 1290 M⁻¹ s⁻¹. Besides, in series [3], the Km stood at 670 ± 140 µM, the Vmax amounted to 0.64 µmol/min/mg, the kcat was determined as 0.26 ± 0.02 s⁻¹ and the kcat/Km amounted to 392 M⁻¹ s⁻¹.
